Reference: patent US20070105162A1, “Monovalent avidin and streptavidin compositions” (Massachusetts Institute of Technology, priority 2005, published 2007)

Experiment: Biotin binding of avidin triple mutant (D4)
Description: After incubation at room temperature for 20 hr, the protein is precipitated by adding 50 μL to 200 μL 0.2 M ZnSO4 followed by 200 μL 0.2 M NaOH. The protein precipitate is pelleted by centrifugation at 16,500 g for 5 min. The biotin bound by D4 is calculated from the total ^3H-biotin added minus the ^3H-biotin in the supernatant. The Kd is obtained using a nonlinear regression analysis (one-site binding hyperbola) with SigmaPlot (Systat Software; Point Richmond, Calif.).
Methods provided in the Methods section above are used to make and test the monovalent avidin. We produce an avidin tetramer consisting of three subunits unable to bind biotin and one subunit that binds biotin as well as wild-type avidin. A triple mutant N12A, S16D, T35A is produced. […] The binding of this triple mutant (composed of “Dead” subunits-D) is so weak that it is difficult to measure. To generate monovalent avidin the wild-type subunit is first tagged with a His6-tag (“Alive” subunit-A). Then D and A subunits are combined at a molar ratio of 3:1 in guanidinium hydrochloride and refolded by rapidly diluting the mixture into PBS. This refold generates a mix of avidin tetramers of different compositions.

B1: D4 avidin: Avidin tetramer of four Dead subunits (N12A, S16D, T35A, SEQ ID NO:18) (protein)
chain: ARKCSLTGKWTADLGDNMTIGAVNSRGEFTGTYIAAVTATSNEIKESPLHGTQNTINKRTQPTFGFTVNWKFSESTTVFTGQCFIDRNGKEVLKTMWLLRSSVNDIGDDWKATRVGINIFTRLRTQKE
modifications: tetramer
biotin binding of avidin triple mutant: negligible biotin binding
